# Reference: US20080113421A1, “Stabilizing proteins against denaturation and inactivation by charged detergents using chemical modifications, including modifications that increase net charge” (President and Fellows of Harvard College, priority 2006, published 2008)
# Test: Dynamic light scattering, hydrodynamic radius
# Type: physicochemical
# Experimental: Dynamic light scattering (DLS) measurements were performed on a DynaPro light scattering device (Wyatt Technology Corp.), at protein concentrations of […].
# Dynamic light scattering was also used to measure the sizes of the folded and unfolded protein and of the presumably aggregated sample. The hydrodynamic radius of the native BCA (2.7±0.7 nm), and of BCA, refolded in 0.1 mM SDS (2.6±0.6 nm), were measured. BCA was denatured in 10 mM SDS, and diluted to 1.8 mM SDS, a concentration at which no refoldings were observed immediately before the measurement. […] The small increase in the hydrodynamic radius of the incubated sample is indicative of the formation of low-order aggregates (e.g., dimers or trimers), but the resolution of DLS measurements was not sufficient to observe each species individually.
substance,measurement,setting,value
bovine carbonic anhydrase II [BCA],hydrodynamic radius,"denatured in 10 mM SDS, diluted to 1.8 mM SDS immediately before measurement",2.9±0.6 nm
same,hydrodynamic radius,"denatured, incubated in 1.8 mM SDS for one week",3.6±0.9 nm
same,hydrodynamic radius,native protein,2.7±0.7 nm
same,hydrodynamic radius,refolded in 0.1 mM SDS,2.6±0.6 nm
